The text below walks through data of PMC7251212.

The target of this assay is recombinant TdfH (Neisseria gonorrhoeae TonB-dependent transporter, NGO0952) (Neisseria gonorrhoeae). Put plainly: ITC; Nano ITC, 25°C, 1x PBS with 0.05% DDM; TdfH (300 μl, 20 μM) in the cell, CP sample (200 μM) in 20 injections of 2.5 μl; fitted with NanoAnalyze to a two-state (multisite) model, TKO to a single-site model. A general note: In ITC the heat of successive injections is recorded.

In the case of “mouse calprotectin (heterodimer of mouse S100A8 and S100A9) (from UniProt P27005 1-89; P31725 1-113) (complex)”, the KD, higher affinity (two-state model) is 0.72 µM and the KD, lower affinity (two-state model) amounted to 51 µM.
